The values below are quoted from earlier work in paper PMC7809386.

Data set [1] has as its target SecA (Escherichia coli) (UniProt P10408).
Data set [2] shares this target. The source holds these as a separate data set.

Where two headings read alike, the source gives them in different places.

SecA (from UniProt P10408): the values for the Kd with SecA (Escherichia coli) [1] and in the data set with SecA (Escherichia coli) [2] were 0.74 nM and 100 nM, respectively.

The term Kd denotes the concentration at which binding is half-saturated.
